Data: patent US20080038273A1 (INSTITUT NATIONAL DE LA SANTE ET DE LA RECHERCHE MEDICALE …, published 2008)

Target: T1, Recombinant human CD28 (human, UniProt P10747 19-152, limits assumed)
T1 construct: also called CD28 molecule
Assay: BIACORE, recombinant human CD28 immobilized
Description: Recombinant human CD28 was immobilized on the biosensor (BIACORE) detector.

B1: CD28.3 scFv/α1-antitrypsin fusion protein (other)
chain: DYKDIVKLQQSGAELVKPGASVRLSCKASGYTFTEYIIHWIKLRSGQGLEWIGWFYPGSNDIQYNAKFKGKATLTADKSSSTVYMELTGLTSEDSAVYFCARRDDFSGYDALPYWGQGTMVTVSSGGGGSGGGGSGGGGSDIQMTQSPASLSVSVGETVTITCRTNENIYSNLAWYQQKQGKSPQLLIYAATHLVEGVPSRFSGSGSGTQYSLKITSLQSEDFGNYYCQHFWGTPCTFGGGTKLEIKRTVAAPSEFNKITPNLAEFAFSLYRQLAHQSNSTNIFFSPVSIATAFAMLSLGTKADTHDEILEGLNFNLTEIPEAQIHEGFQELLRTLNQPDSQLQLTTGNGLFLSEGLKLVDKFLEDVKKLYHSEAFTVNFGDTEEAKKQINDYVEKGTQGKIVDLVKELDRDTVFALVNYIFFKGKWERPFEVKDTEEEDFHVDEVTTVKVPMMKRLGMFNIQHCKKLSSWVLLMKYLGNATAIFFLPDEGKLQHLENELTHDIITKFLENEDRRSASLHLPKLSITGTYDLKSVLGQLGITKVFSNGADLSGVTEEAPLKLSKAVHKAVLTIDEKGTEAAGAMFLEAIPMSIPPEVKFNKPFVFLMIEQNTKSPLFMGKVVNPTQKLEGEFEQKLISEEDLNHHHHH
notes: The pIG6 product would also carry DYKD at the N-terminus; not shown: c-myc marker and polyhistidine marker of the vector (pIG6 or pSECTagB)
  Ka: 2.86e+09 M⁻¹
  Kd: 349 pM
